From US20030091584A1 (AstraZeneca / MedImmune, published 2003)
Numbering of substitutions follows the chain as printed. Several values for one entry are separate records, joined by “and”; a condition that tells them apart may be missing. Equal values may be shown once.

T1: RSV F glycoprotein (NUF4) (respiratory syncytial virus)
T1 chain 1: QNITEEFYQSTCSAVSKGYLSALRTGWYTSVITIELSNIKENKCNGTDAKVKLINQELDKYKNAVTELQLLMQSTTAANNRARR
T1 chain 2: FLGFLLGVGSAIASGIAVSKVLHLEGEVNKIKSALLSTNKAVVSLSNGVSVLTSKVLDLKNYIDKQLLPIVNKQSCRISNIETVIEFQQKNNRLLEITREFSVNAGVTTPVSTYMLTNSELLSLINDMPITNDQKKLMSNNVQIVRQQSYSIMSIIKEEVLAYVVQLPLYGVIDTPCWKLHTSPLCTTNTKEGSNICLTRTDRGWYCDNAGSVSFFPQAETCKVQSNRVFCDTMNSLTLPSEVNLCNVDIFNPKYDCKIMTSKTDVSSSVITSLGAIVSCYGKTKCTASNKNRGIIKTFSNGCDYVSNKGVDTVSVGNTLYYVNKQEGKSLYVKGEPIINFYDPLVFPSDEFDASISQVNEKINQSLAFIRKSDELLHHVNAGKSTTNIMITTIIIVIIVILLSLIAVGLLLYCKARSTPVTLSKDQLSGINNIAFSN

B1: A1e9 (monoclonal antibody) (antibody, V domains shown)
VH: QVTLRESGPALVKPTQTLTLTCTFSGFSLSTPGMSVGWIRQPPGKALEWLADIWWDGKKHYNPSLKDRLTISKDTSKNQVVLKVTNMDPADTATYYCARDMIFNWYFDVWGQGTTVTVSS
VL: DIQMTQSPSTLSASVGDRVTITCSLSSRVGYMHWYQQKPGKAPKLLIYDTFKLSSGVPSRFSGSGSGTEFTLTISSLQPDDFATYYCFQGSGYPFTFGGGTKVEIK
notes: mAb with framework and constant regions of SYNAGIS; also called Ale9
B2: DG (Fab fragment) (Fab, V domains shown)
VH: B1 VH with P32A, G57D, H60D, D67S, F103T, W105F, Q112A
VL: B1 VL with L25A, R28S, S54A, V103L
B3: A12a6 (monoclonal antibody) (antibody, V domains shown)
VH: B1 VH with P32A, H60D, W105F
VL: B1 VL with L25A
notes: mAb with framework and constant regions of SYNAGIS
B4: A17d4 (Fab fragment) (Fab, V domains shown)
VH: B1 VH with P32A, H60S, W105F
VL: B1 VL with S24L, L25P, F51M, K52Y, L53Q, S54A, G90F, V103L
B5: A8c7 (Fab fragment) (Fab, V domains shown)
VH: B1 VH with P32A, G57D, H60S
VL: B1 VL with L25A, F51R, K52Y, L53Q, V103L
B6: 6H8 (Fab fragment) (Fab, V domains shown)
VH: B1 VH with P32A, G57D, H60D, D67S, F103T, W105F, Q112A
VL: B1 VL with L25A, R28S, S54T, V103L
B7: P12f2 (Fab fragment) (Fab, V domains shown)
VH: B1 VH with G57D, W105F, Q112A
VL: B1 VL with K52Y
notes: Fab
B8: Y10H6 (Fab fragment) (Fab, V domains shown)
VH: B1 VH with P32A, G57D, H60D, D67S, Q112A
VL: B1 VL with L25A, R28S, F51R, K52Y, V103L
B9: A4B4 (Fab fragment) (Fab, V domains shown)
VH: B1 VH with P32A, G57D, W105F
VL: B1 VL with L25A, K52F, S54D, V103L
B10: P12f4 (monoclonal antibody) (antibody, V domains shown)
VH: B1 VH with W105F
VL: B1 VL with F51R, K52G, S54P
notes: as for B3
B11: A8c7 (monoclonal antibody) (antibody, V domains shown)
VH: B1 VH with P32A, G57D, H60S
VL: B1 VL with L25A, F51R, K52Y, L53Q, V103L
notes: as for B3
B12: 1X-493L1FR (Fab fragment) (Fab, V domains shown)
VH: B1 VH with P32S, G57D, H60D, D67S, D100S, F103T, Q112A
VL: B1 VL with L25A, R28S, F51S, S54A, V103L
B13: P11d4 (monoclonal antibody) (antibody, V domains shown)
VH: B1 VH
VL: B1 VL with L25P, F51M, K52R, S54A
notes: as for B3
B14: A13a11 (Fab fragment) (Fab, V domains shown)
VH: B1 VH with P32A, G57D, Q112A
VL: B1 VL with L25A, R28S, F51Y, K52R, L53H, S54A, V103L
notes: Fab
B15: M3H9 (Fab fragment) (Fab, V domains shown)
VH: B1 VH with P32A, G57D, H60D, D67S, Q112A
VL: B1 VL with L25A, R28S, F51Y, L53Q, S54T, V103L
B16: P11d4 (Fab fragment) (Fab, V domains shown)
VH: B1 VH
VL: B1 VL with L25P, F51M, K52R, S54A
notes: Fab
B17: P12f2 (monoclonal antibody) (antibody, V domains shown)
VH: B1 VH with G57D, W105F, Q112A
VL: B1 VL with K52Y
notes: mAb with framework and constant regions of SYNAGIS; also called Pf12
B18: H3-3F4 (Fab fragment) (Fab, V domains shown)
VH: B1 VH with P32A, G57D, H60D, D67S, Q112A
VL: B1 VL with L25A, R28S, S54A, V103L
B19: A1e9 (Fab fragment) (Fab, V domains shown)
VH: B1 VH
VL: B1 VL
notes: Fab; also called *Ale9
B20: A12a6 (Fab fragment) (Fab, V domains shown)
VH: B1 VH with P32A, H60D, W105F
VL: B1 VL with L25A
notes: Fab
B21: A1h5 (Fab fragment) (Fab, V domains shown)
VH: B1 VH
VL: B1 VL with R28S, K52F, L53H, S54R, V103L
B22: P12f4 (Fab fragment) (Fab, V domains shown)
VH: B1 VH with W105F
VL: B1 VL with F51R, K52G, S54P
notes: Fab

Key:
[1] = molecular target: T1, RSV F glycoprotein (NUF4); test: BIAcore, mAb vs NUF4 (1:1)
[2] = molecular target: T2, F protein of wild type RSV A/Long (respiratory syncytial virus strain …, UniProt P12568 26-574); test: cell-based or functional assay
[3] = molecular target: T1, RSV F glycoprotein (NUF4); test: BIAcore, mAb vs NUF4 (2:1)
[4] = molecular target: RSV F protein (immobilized on the BIAcore sensor chip) (respiratory syncytial virus); test: BIAcore, immobilized F protein;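 also: fab fragments as analytes binding F protein coupled to the chip via EDC/NHS chemistry, with blank surface signal subtracted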
[5] = molecular target: T2, F protein of wild type RSV A/Long; test: cell-based or functional assay; remark: listed apart in the source

Row | Binder | Kd [1] | koff [1] | kon [1] | number in parentheses after KD (fold against SYNAGIS = 1) [1] | Fold Difference (Control IC50) [2] | Fold Difference (Curve IC50) [2] | Mean IC50 (Control), RSV microneutralization [2] | Mean IC50 (Curve), RSV microneutralization [2] | Kd [3] | koff [3] | kon [3] | number in parentheses after KD (fold against SYNAGIS = 1) [3] | koff [4] | kon [4] | EC50 (nM), in vitro microneutralization of RSV Long [5]
1 | B1 | 0.69 nM | 0.000584 s⁻¹ | 843000 M⁻¹ s⁻¹ | 13 fold | 8 fold | 7 fold | 0.0645 µg/mL | 0.0625 µg/mL | 4.22 nM | 0.00139 s⁻¹ | 329000 M⁻¹ s⁻¹ | 74 fold |  |  | 
2 | B2 |  |  |  |  |  |  |  |  |  |  |  |  | 0.000167 s⁻¹ and 0.000444 s⁻¹ |  | 
3 | B3 | 0.73 nM | 0.000291 s⁻¹ | 400000 M⁻¹ s⁻¹ | 12 fold | 15 fold | 13 fold | 0.0354 µg/mL | 0.0357 µg/mL | 1.87 nM | 0.000408 s⁻¹ | 218000 M⁻¹ s⁻¹ | 167 fold |  |  | 
4 | B4 |  |  |  |  | 31 fold | 25 fold | 0.0171 µg/mL | 0.0179 µg/mL |  |  |  |  |  |  | 
5 | B5 |  |  |  |  | 34 fold | 3 fold | 0.157 µg/mL | 0.177 µg/mL |  |  |  |  |  |  | 
6 | B6 |  |  |  |  |  |  |  |  |  |  |  |  | 0.000178 s⁻¹ and 0.000473 s⁻¹ | 314000 M⁻¹ s⁻¹ and 444000 M⁻¹ s⁻¹ | 
7 | B7 |  |  |  |  | 16 fold | 11 fold | 0.0326 µg/mL | 0.0407 µg/mL |  |  |  |  | 0.000282 s⁻¹ | 663000 M⁻¹ s⁻¹ | 0.65 nM
8 | B8 |  |  |  |  |  |  |  |  |  |  |  |  | 0.000462 s⁻¹ | 757000 M⁻¹ s⁻¹ | 
9 | B9 |  |  |  |  | 13 fold | 11 fold | 0.0411 µg/mL | 0.0414 µg/mL |  |  |  |  |  |  | 
10 | B10 | 0.24 nM | 0.000229 s⁻¹ | 943000 M⁻¹ s⁻¹ | 36 fold | 23 fold | 19 fold | 0.0235 µg/mL | 0.0242 µg/mL | 2.33 nM | 0.000636 s⁻¹ | 273000 M⁻¹ s⁻¹ | 134 fold |  |  | 
11 | B11 | 0.65 nM | 0.000535 s⁻¹ | 825000 M⁻¹ s⁻¹ | 13 fold | 14 fold | 13 fold | 0.0383 µg/mL | 0.0337 µg/mL | 2.65 nM | 0.00114 s⁻¹ | 430000 M⁻¹ s⁻¹ | 118 fold |  |  | 
12 | B12 |  |  |  |  |  |  |  |  |  |  |  |  | 0.00065 s⁻¹ | 185000 M⁻¹ s⁻¹ | 
13 | B13 | 0.85 nM | 0.000766 s⁻¹ | 904000 M⁻¹ s⁻¹ | 10 fold | 19 fold | 21 fold | 0.0289 µg/mL | 0.0217 µg/mL | 8.55 nM | 0.00313 s⁻¹ | 366000 M⁻¹ s⁻¹ | 36 fold |  |  | 
14 | B14 |  |  |  |  | 5 fold | 4 fold | 0.102 µg/mL | 0.12 µg/mL |  |  |  |  | 0.00025 s⁻¹ | 735000 M⁻¹ s⁻¹ | 2.04 nM
15 | B15 |  |  |  |  |  |  |  |  |  |  |  |  | 0.000338 s⁻¹ | 605000 M⁻¹ s⁻¹ | 
16 | B16 |  |  |  |  |  |  | > 1 µg/mL | > 1 µg/mL |  |  |  |  | 0.000717 s⁻¹ | 570000 M⁻¹ s⁻¹ and 572000 M⁻¹ s⁻¹ | > 20 nM
17 | B17 | 0.33 nM | 0.000178 s⁻¹ | 541000 M⁻¹ s⁻¹ | 26 fold | 24 fold | 20 fold | 0.0223 µg/mL | 0.0231 µg/mL | 0.84 nM | 0.000236 s⁻¹ | 282000 M⁻¹ s⁻¹ | 371 fold |  |  | 
18 | B18 |  |  |  |  |  |  |  |  |  |  |  |  | 0.000445 s⁻¹ and 0.000402 s⁻¹ |  | 
19 | B19 |  |  |  |  | 4 fold | 3 fold | 0.125 µg/mL | 0.157 µg/mL |  |  |  |  | 0.000453 s⁻¹ | 790000 M⁻¹ s⁻¹ | 2.5 nM
20 | B20 |  |  |  |  | 17 fold | 16 fold | 0.031 µg/mL | 0.0287 µg/mL |  |  |  |  | 0.00023 s⁻¹ | 743000 M⁻¹ s⁻¹ | 0.62 nM
21 | B21 |  |  |  |  | 3 fold | 2 fold | 0.176 µg/mL | 0.194 µg/mL |  |  |  |  |  |  | 
22 | B22 |  |  |  |  | 15 fold | 10 fold | 0.0351 µg/mL | 0.0464 µg/mL |  |  |  |  | 0.000299 s⁻¹ | 527000 M⁻¹ s⁻¹ | 0.7 nM
